The data set has as its target T1, ArcR (Staphylococcus aureus NCTC8325 (?)) (UniProt Q2FUY1).
T1 sequence: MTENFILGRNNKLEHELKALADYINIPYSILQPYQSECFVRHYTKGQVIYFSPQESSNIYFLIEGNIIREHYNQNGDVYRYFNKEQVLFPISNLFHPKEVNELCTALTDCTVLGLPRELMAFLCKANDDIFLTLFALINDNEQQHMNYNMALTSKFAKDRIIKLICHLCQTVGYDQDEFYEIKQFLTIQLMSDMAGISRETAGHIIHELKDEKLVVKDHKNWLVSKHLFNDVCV
The experiment in a line: EMSA. As to conditions: 25 mM HEPES, 300 mM NaCl, 1 mM DTT, 10% glycerol, pH 7.8; 30 min at room temperature ([…]) or 37 °C ([…].
Regarding “ACCTACCTTTCGTTAGTTAGGTTGTAAGCCATATGGTAATTGATAGTATTTTAATTTGCAATAGATTGTTGTTATAATTAAACGGAAATATTTGTAATTGCAACTTAATTTTCCTGTAACATAGTGTGATTAATTTTCAGTAGGGGGTTATAAAAATTGAAGGATAAGATTATTGATAACGCAATAACCTTATTTTCAGAGAAGGGGTATGACGGTACAACACTTGATGATATAGCT (double strand) [ica promoter (icaA) fragment]”, the binding entry is reported as “binds”. With “AGCGCGTGTTGTTATGTCGCGAATGGTAATCTTTTCTAAATCTTTTTCTTGTAGTAATTTAGTGAACGCTTGTTTAATGGAGGACTTTGTCTTTCTAATTCGCCTATCTTCTTTCAAAAATAAATCAACCTCCTTGTGTTATTGAACAATGTGGGTGTATTTGTCTATTAATGAACGTATTGATGAACATTGTGTATTGTTTATTCCCACTTACATATTATAATAGACAACATGCGAAATATTCAACACATTGTCTAATAAGGAGGT (double strand) [tetA promoter fragment]”, the binding result is reported as “no binding”. In the case of “TCAACTTTGACTAACCCTCGAAATTGAAATGCTTCCTTTCAAATTTTAAATAAAAGTTAAAAACATATTCTTAAAATAATCACTCATCATCACTCAGTAATTTATCAGTTGCTACATTAAATATACTAATATAAACGATTATAAATATTTGATATGTCTCAACTGCAATATTCTAAATTGACATATTGATTATTGTTTCCTCAAATCGTTTTAAAAAATAGAAGGATGATGAAAATGAAAACACGTATAGTCAGCTCAGTAACAACAACACTATTGCTAGGTT (double strand) [hla promoter fragment]” it was “binds”.

These data come from PMC10384999.
